Assay results: the DeepSol protein solubility set

Test: soluble on expression in E. coli; label from the status in PepcDB or PDB records

Sequence	soluble on expression in E. coli
NMIKAAISRQREFLADASAVQFTRNDQGIAGALKKIGSNVQGSTLNTKASDEMSHMMFGQSKLSGFSGLFATHPPLDERIRRIEPNWDGSYAQHSHAQNTAFDNEQVSGFAVGGGSPASQSASPSEQLSETGQQLISQLPPELVDIAREPYSARFIAFALIFDGSDIQREMIKSYVPLASQSTLLPWLDYDLPLHLRFPLLELALPALKSLSEAQKISLCKVLRELSETDNQYSLAEWCVINLLEKQLLASFGFIKQHKSLKQLEESVFWLLRELAWVSHSQADKAQRAYHCALAHLGFPEVKLEPANSNWHLSRAALELLLQLKPNDRRMFVKACRLAIESDGEITVAEGEIYRVIACFLEVPEPPLTISG	not soluble
MGSDKIHHHHHHMKNRDWYTSLVSGLLFPLQERLKDHSTVSVRKALELSQWWNRERLENLQLLKLRHLLAEAEAHVPYYRRIFAEIGFKAAEVSSLADLARLPLLDKPAIRADTEALKSQKARSLRSFNTGGSSGEPLTFYIGRERVSHDVAAKWRATRWWDVDIGDPEMVVWGSPIELGAQDRLRMLRDRLLRTRLFPAFEMSEQKLDRFLGELRAAPPRMFFGYPSALSHIARHAQARGQRMDDLGINVAFVTSERLYDEQRQQISKTFGCPVANGYGGRDAGFIAHECPEGGMHITAEDIIVEIVDRQGVPLPCGEAGEIIVTHLSTAEFPFIRYRTGDIGILDDRICRCGRGLPLLREIQGRSTDFVVAQDGTVMHGLALIYILRELPQISHFKIIQESLNLIHIWVVSGAKLDREITAKIEEEFKARLGQSVEVLIEETTEIPAEKSGKFRYVISKIAGA	not soluble
MGSDKIHHHHHHMGNATRIYEKHVDIKKDTVQDFWNKRAKKHIPENPYISVKCNDQNPDYAKNLDKYEKEIIIPKLNITRNSNILDIGCGVGRLADDIVPICNYYLGTDFAEDLISIAKKRFSDNDCDFQVCDFINTLYDTKVKSKMPFDTILLAGVTMYINDDELKIALKNLLGILDKKATIYISIPIGINKRLTLKEFYSKELNSEYNVIYRTIEEYEEILKPLLDEGFEIVESKSFLTDINQYSDTERHYFILKR	not soluble
MGSDKIHHHHHHMINELKKTKSRSEIKREQILHSAIELFCVQGFPNTSMDEVAKLAGVSKQTVYAHFGSKDDLFVAAIESRCIAHQLTGDLLFDPKHPEVSIMRFSQQFGEMIVSHETMAVFKTCVAQAESHPELPRLFFNAGPKHVLGLLSGFLQLVDKQGGYHFPKPHDSAIRLCLMLFGELKLRLELGLEVEELRLSRDAYIEETAQMFLRAHRV	not soluble
MALSKTIATVTRRICERSAPTREIYLDRIAKAQANHPKRSFLGCANQAHGFAACGSIDKKRLKRNIVGNIGIITAYNDILSAHQPFESFPHLIKETARMFGGVAQVAGGVPAMCDGVTQGNTGMELSLFSRDVIAMATAIGLSHDMFDAALYLGVCDKIVPGLVIGALTFGHLPGIFVPAGPMTSGQGNDEKAKIRQLYAENKIDRQTLLESEARSYHGPGTCTFYGTANSNQVILEMMGLHMPGSSFINANTPLRDALTKEATKRVLEMIALGDSYSPIGLIVDERSFVNAVVGLNATGGSTNHAIHLIAMAAAAGILLTWHDIAEISSVVPLLARIYPNGLADINHFHAAGGMGFVIRELIEAGLVHEDVCTVFGKDLNAYAIEAKLCNDDNVVREPALNESANHKVLTGWRKPFQSDGGIRILLGDLGTAIMKVSSVKSEYWRIEAPVLVFNDQEELQEAFKAGVLNDKDFIAVIRYQGPKANGMPELHKLTTILGVLQDRGQKVALVTDGRMSGASGKIPAAIHVTPEALDDGPIARLQNGDVVCLDAHVGKLAILEDKVEFNARKITLPDLSKNEYGVGRELFRIFRHSVNRADQGASVLIA	not soluble
MSLGRFVRHALITAGTKGLGKQVTEKLLAKGYSVTVTYHSDTTAMETMKETYKDVEERLQFVQADVTKKEDLHKIVEEAMSHFGKIDFLINNAGPYVFERKKLVDYEEDEWNEMIQGNLTAVFHLLKLVVPVMRKQNFGRIINYGFQGADSAPGWIYRSAFAAAKVGLVSLTKTVAYEEAEYGITANMVCPGDIIGEMKEATIQEARQLKEHNTPIGRSGTGEDIARTISFLCEDDSDMITGTIIEVTGAVDVIHREGHHHHHH	soluble
